This data set concerns the target TP53 (Homo sapiens) (UniProt P04637). The data set is described as follows: EMSA-seq. (Mobility shift assays separate free from complexed probe on a gel.)

The values that follow come from PMC6314159.

The term Kd denotes the constant that tells how readily two partners part at equilibrium. A higher Kd goes with lower affinity.

Chain of TP53 (Homo sapiens) (P04637 whole entry): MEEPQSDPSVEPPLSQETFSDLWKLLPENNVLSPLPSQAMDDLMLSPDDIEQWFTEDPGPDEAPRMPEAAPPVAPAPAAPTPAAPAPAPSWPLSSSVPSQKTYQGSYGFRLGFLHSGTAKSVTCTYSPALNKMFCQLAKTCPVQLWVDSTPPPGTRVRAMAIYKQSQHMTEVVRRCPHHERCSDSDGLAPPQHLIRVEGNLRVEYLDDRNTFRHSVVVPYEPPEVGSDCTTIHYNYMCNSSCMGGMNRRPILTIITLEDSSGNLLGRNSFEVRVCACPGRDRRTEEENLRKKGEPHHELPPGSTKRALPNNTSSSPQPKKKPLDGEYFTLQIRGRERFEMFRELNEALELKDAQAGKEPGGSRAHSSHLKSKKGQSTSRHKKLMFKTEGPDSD

As to “GATGGACCCTATACGCGGCCGCCCTGGAGAATCCCGGTGCCGAGGCCGCTCAATTGGTCGTAGACAGCTCTAGCACCGCTTAAACGCACGTACGCGCTGTCCCCCGCGTTTTAACCGCCAAGGGGATTACTCCCTAGTCTCCAGGCACGTGTCAGATATATACATCCTGTGCGGGCATGTCCGGGCATGTCCGCCGGTGCCAGTCGGATAGTGTTCC (double strand) [High SHL 8 nucleosome (linker)]”, the Kd was 19 nM.
